The nature of the data set: amyloid nucleation score (Sup35N fusion, yeast selection) (log enrichment); library NNK1; higher = more nucleation; inactive = no reads after selection. In short, it runs like this: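 Three technical output replicates were used for random libraries. Psi-negative yeast expressing peptides of 20 random codons fused to Sup35N were induced with 100 μM copper sulfate for 24 hours and grown 7 days at 30°C on medium lacking adenine and uracil, and input and output plasmid inserts were Illumina-sequenced, excluding sequences with under 100 input reads. The nucleation score is the DiMSum log enrichment of output over input reads, centred on the mode score of non-aggregating sequences.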

± gives the uncertainty stated by the source.

Regarding SWRNVLKSGASRNKVDRSSL, the amyloid nucleation score is -0.22 ± 1.1. With SFIDDCP the entry was “inactive”. With DFWMSRKYLNVSMQ the figure was 3.98 ± 0.1. With YKLFGFFGRHPVNWYV the figure was 0.344 ± 0.51; with YFLTHRTGRYNMGDSSVRTL, -0.319 ± 0.38. The substance RYYVSSLRPVRRQSRKDGCG had an amyloid nucleation score of -0.414 ± 0.63. With GSSRKSIVNIRILPSFALAE the figure was -0.272 ± 0.52; with LICLGRPTSNTELGMNDINF, -0.349 ± 0.84. On to HVFSQ, for which the amyloid nucleation score is -0.756 ± 2.4.

Consider GVMACDMCCPNKRVSEPRAS, for which the amyloid nucleation score was -0.278 ± 0.41. With EQCHRVFRAL the figure was 0.362 ± 0.55; with FQYGLGMRVRWKDAMLIRTR, “inactive”; with QYVIQAYACTWCRCGKLQSG, 7.693 ± 0.065. With GPLINTDELWIWSAVCCCRL the figure was -0.781 ± 1.9; with SVIYHRCLFLI, 6.906 ± 0.048; with GVMIWRQRWRKVIVGGALRW, -0.217 ± 0.63. DLIQLGLGQVSDPLGTWWSG returned an amyloid nucleation score of 2.29 ± 0.3. With KKRSFLGYFVSLAFYNCYQY the figure was 2.73 ± 0.075; with IFPPFMDFRNCPVMLNC, 0.761 ± 0.2. With DNVLALDGWNLINCLTT the figure was 0.155 ± 0.37; with LYNPFHIRESMRSRPLVRWV, -0.1 ± 0.32; with ACLISMMLVLCYI, 1.67 ± 0.53. With KYLACILCSKLLTQSNSRNI the figure was 7.687 ± 0.058; with DKRYGDEVRHTGRWSRSVVW, 0.013 ± 0.42; with KIRVILYVPRVS, 1.76 ± 0.51.

Substance FYFSASATIL registered an amyloid nucleation score of -0.093 ± 0.81. With VMVWLGDREAGLCESELGAG the figure was 0.12 ± 0.45; with NWYYRWELFVACFYLYSGWE, “inactive”. With LSMPGTTCIFYYRLFLVLGE the figure was -0.043 ± 0.31. With CFVVHMSKEFYGRYFVRRIN the entry was “inactive”; with VILSYRLSEWGSSGDGDGRR, -0.562 ± 0.8; with EDFLYMCFRLSFVIIH, 3.42 ± 0.12.

IISAFISESTYDCGFASWVS registered an amyloid nucleation score of -0.187 ± 0.42. With WADTIFCTSACNNVSGIRWG, the amyloid nucleation score is -0.681 ± 0.58. With WQVNVLIIMCGSFLLVFDFQ the figure was 0.359 ± 0.45. With WNELCHQLNWCICRVAGFVK the figure was -0.637 ± 0.62.

As to TGYGSDNCI, the amyloid nucleation score entry was “inactive”. With NIVDVKPQKRETIRWLWIIF the figure was -0.232 ± 0.2; with HCRKYTKTSR, -0.327 ± 0.47.

With KVTLNFRSHSLENCDAYNKY, the amyloid nucleation score turned out to be 3.15 ± 0.12.

On to YSGRRQETNVGRLRSNWGGL, for which the amyloid nucleation score was -0.568 ± 0.39. For the substance RLFSENMQEVMV, the amyloid nucleation score was -0.698 ± 0.52. Turning to NYFIVLSR, the amyloid nucleation score came to 2.09 ± 0.43. With GGHHVSPVCLEWNNLRWDI the figure was 0.897 ± 0.78; with GGFIR, -0.516 ± 1.1. AVCVMWANGLVYMTSLECER yielded an amyloid nucleation score of -0.679 ± 0.35. With KVYYRVKMHYSLAGEARTDT the figure was 0.621 ± 0.84. With NRARPLVSFMILGSVSECYA the figure was 0.767 ± 0.21; with IINERSANLYDFVVIDRSWL, -1.04 ± 0.69; with IIISTGVRFTEDSCGFAWAE, -0.009 ± 0.66. With GFKVVDTAWFL the figure was -0.116 ± 0.27; with FMRDFSGCSNDRFDGDLALC, 0.024 ± 0.62. Regarding CAKGCCD, the amyloid nucleation score is -0.344 ± 0.72. With TLSGFYPMYHHLCHECVLKP the figure was 1.13 ± 0.37; with SWVSAVIHRYGV, 1.31 ± 0.15. With GYHSKFRWVLLFVVTSASGE the entry was “inactive”.

As for KNQKMVYTRIGLPGFG, the amyloid nucleation score is -0.42 ± 0.56.

These data come from the supplement of paper PMC12042874.
